The text below walks through data of article PMC8870054.

The target in the test is CLOBY biosensor (His6-mClover3-spacer with TEV site-Src SH4, unique and SH3 domains-spacer-mRuby3). In words: dynamic light scattering; hydrodynamic radius at variable concentrations up to 275 uM, 25 °C; apparent; dimer to monomers.

On to “CLOBY biosensor (His6-mClover3-spacer with TEV site-Src SH4, unique and SH3 domains-spacer-mRuby3)”, for which the Kd came out at 700 µM.
